Experimental data taken from paper PMC5482573 (eLife, 2017).

B1: β-COP (M. musculus, in recombinant coatomer) (natural protein)
chain: MTAAENVCYTLINVPMDSEPPSEISLKNDLEKGDVKSKTEALKKVIIMILNGEKLPGLLMTIIRFVLPLQDHTIKKLLLVFWEIVPKTTPDGRLLHEMILVCDAYRKDLQHPNEFIRGSTLRFLCKLKEAELLEPLMPAIRACLEHRHSYVRRNAVLAIYTIYRNFEHLIPDAPELIHDFLVNEKDASCKRNAFMMLIHADQDRALDYLSTCIDQVQTFGDILQLVIVELIYKVCHANPSERARFIRCIYNLLQSSSPAVKYEAAGTLVTLSSAPTAIKAAAQCYIDLIIKESDNNVKLIVLDRLVELKEHPAHERVLQDLVMDILRVLSTPDLEVRKKTLQLALDLVSSRNVEELVIVLKKEVIKTNNVSEHEDTDKYRQLLVRTLHSCSVRFPDMAANVIPVLMEFLSDSNEAAAADVLEFVREAIQRFDNLRMLIVEKMLEVFHAIKSVKIYRGALWILGEYCSTKEDIQSVMTEVRRSLGEIPIVESEIKKEAGELKPEEEITVGPVQKLVTEMGTYATQSALSSSRPTKKEEDRPPLRGFLLDGDFFVAASLATTLTKIALRYVALVQEKKKQNSFVAEAMLLMATILHLGKSSLPKKPITDDDVDRISLCLKVLSECSPLMNDIFNKECRQSLSQMLSAKLEEEKLSQKKESEKRNVTVQPDDPISFMQLTAKNEMNCKEDQFQLSLLAAMGNTQRKEAADPLASKLNKVTQLTGFSDPVYAEAYVHVNQYDIVLDVLVVNQTSDTLQNCTLELATLGDLKLVEKPSPLTLAPHDFANIKANVKVASTENGIIFGNIVYDVSGAASDRNCVVLSDIHIDIMDYIQPATCTDAEFRQMWAEFEWENKVTVNTNMTDLNDYLQHILKSTNMKCLTPEKALSGYCGFMAANLYARSIFGEDALANVSIEKPVHQGPDAAVTGHIRIRAKSQGMALSLGDKINLSQKKTSL
notes: beta-COP, coatomer subunit beta, M. musculus. numbers count on: the construct with its N-terminal His-tag, shifted by 15 residues relative to Q9JIF7; Stood in the assays as a subunit of the whole heptameric coatomer; The coatomer of the photo-cross-linking is called only 'coatomer'; source: SF9 insect cells (baculovirus), as part of recombinant coatomer, purified
B2: S. cerevisiae myristoylated Arf1 (natural protein)
chain: MGLFASKLFSNLFGNKEMRILMVGLDGAGKTTVLYKLKLGEVITTIPTIGFNVETVQYKNISFTVWDVGGQDRIRSLWRHYYRNTEGVIFVVDSNDRSRIGEAREVMQRMLNEDELRNAAWLVFANKQDLPEAMSAAEITEKLGLHSIRNRPWFIQATCATSGEGLYEGLEWLSNSLKNST
modifications: myristoylated
notes: Arf1 (ADP-ribosylation factor 1), S. cerevisiae, loaded with GTPγS on membranes; also called γArf1 (central); βArf1 (peripheral); source: E. coli, purified
B3: R. norvegicus ArfGAP2, full-length, N-terminally His-tagged (enzyme)
chain: not shown
notes: PDB 2P57 was fitted for it; source: insect cells, purified (Ni-NTA, gel filtration)
B4: β’-COP (M. musculus, in recombinant coatomer) (natural protein)
chain: MPLRLDIKRKLTARSDRVKSVDLHPTEPWMLASLYNGSVCVWNHETQTLVKTFEVCDLPVRAAKFVARKNWVVTGADDMQIRVFNYNTLERVHMFEAHSDYIRCIAVHPTQPFILTSSDDMLIKLWDWDKKWSCSQVFEGHTHYVMQIVINPKDNNQFASASLDRTIKVWQLGSSSPNFTLEGHEKGVNCIDYYSGGDKPYLISGADDRLVKIWDYQNKTCVQTLEGHAQNVSCASFHPELPIIITGSEDGTVRIWHSSTYRLESTLNYGMERVWCVASLRGSNNVALGYDEGSIIVKLGREEPAMSMDANGKIIWAKHSEVQQANLKAMGDTEIKDGERLPLAVKDMGSCEIYPQTIQHNPNGRFVVVCGDGEYIIYTAMALRNKSFGSAQEFAWAHDSSEYAIRESNSIVKIFKNFKEKKSFKPDFGAESIYGGFLLGVRSVNGLAFYDWENTELIRRIEIQPKHIFWSDSGELVCIATEESFFILKYLSEKVLAAQETHEGVTEDGIEDAFEVLGEIQEIVKTGLWVGDCFIYTSSVNRLNYYVGGEIVTIAHLDRTMYLLGYIPKDNRLYLGDKELNIVSYSLLVSVLEYQTAVMRRDFSMADKVLPTIPKEQRTRVAHFLEKQGFKQQALTVSTDPEHRFELALQLGELKIAYQLAVEAESEQKWKQLAELAISKCQFSLAQECLHHAQDYGGLLLLATASGNASMVNKLAEGAERDGKNNVAFMSYFLQGKLDACLELLIRTGRLPEAAFLARTYLPSQVSRVVKLWRENLSKVNQKAAESLADPTEYENLFPGLKEAFVVEEWVKETHADLWPAKQYPLVTPNEERNVMEEAKGFQPSRPTAQQEPDGKPASSPVIMASQTTHKEEKSLLELEVDLDNLELEDIDTTDINLDEDILDD
notes: beta'-COP, coatomer subunit beta', M. musculus; Stood in the assays as a subunit of the whole heptameric coatomer; source: SF9 insect cells (baculovirus), as part of recombinant coatomer, purified

Experiments:
Details in all cases: both partners purified
[1] = target: T1, α-COP (M. musculus, in recombinant coatomer) (M. musculus, UniProt Q8CIE6 1-1224); assay: cryo-EM structure; cryo-electron tomography and subtomogram averaging of the COPI leaf, 9.2 Å; coat assembled in vitro from coatomer (840 nM), Arf1 (2 μM), GTPγS, ARNO and GUVs, 37°C, 50 mM HEPES pH 7.4, 50 mM KOAc, 1 mM MgCl2
T1 construct: alpha-COP, coatomer subunit alpha, M. musculus; Stood in the assays as a subunit of the whole heptameric coatomer; source: SF9 insect cells (baculovirus), as part of recombinant coatomer, purified
T1 sequence: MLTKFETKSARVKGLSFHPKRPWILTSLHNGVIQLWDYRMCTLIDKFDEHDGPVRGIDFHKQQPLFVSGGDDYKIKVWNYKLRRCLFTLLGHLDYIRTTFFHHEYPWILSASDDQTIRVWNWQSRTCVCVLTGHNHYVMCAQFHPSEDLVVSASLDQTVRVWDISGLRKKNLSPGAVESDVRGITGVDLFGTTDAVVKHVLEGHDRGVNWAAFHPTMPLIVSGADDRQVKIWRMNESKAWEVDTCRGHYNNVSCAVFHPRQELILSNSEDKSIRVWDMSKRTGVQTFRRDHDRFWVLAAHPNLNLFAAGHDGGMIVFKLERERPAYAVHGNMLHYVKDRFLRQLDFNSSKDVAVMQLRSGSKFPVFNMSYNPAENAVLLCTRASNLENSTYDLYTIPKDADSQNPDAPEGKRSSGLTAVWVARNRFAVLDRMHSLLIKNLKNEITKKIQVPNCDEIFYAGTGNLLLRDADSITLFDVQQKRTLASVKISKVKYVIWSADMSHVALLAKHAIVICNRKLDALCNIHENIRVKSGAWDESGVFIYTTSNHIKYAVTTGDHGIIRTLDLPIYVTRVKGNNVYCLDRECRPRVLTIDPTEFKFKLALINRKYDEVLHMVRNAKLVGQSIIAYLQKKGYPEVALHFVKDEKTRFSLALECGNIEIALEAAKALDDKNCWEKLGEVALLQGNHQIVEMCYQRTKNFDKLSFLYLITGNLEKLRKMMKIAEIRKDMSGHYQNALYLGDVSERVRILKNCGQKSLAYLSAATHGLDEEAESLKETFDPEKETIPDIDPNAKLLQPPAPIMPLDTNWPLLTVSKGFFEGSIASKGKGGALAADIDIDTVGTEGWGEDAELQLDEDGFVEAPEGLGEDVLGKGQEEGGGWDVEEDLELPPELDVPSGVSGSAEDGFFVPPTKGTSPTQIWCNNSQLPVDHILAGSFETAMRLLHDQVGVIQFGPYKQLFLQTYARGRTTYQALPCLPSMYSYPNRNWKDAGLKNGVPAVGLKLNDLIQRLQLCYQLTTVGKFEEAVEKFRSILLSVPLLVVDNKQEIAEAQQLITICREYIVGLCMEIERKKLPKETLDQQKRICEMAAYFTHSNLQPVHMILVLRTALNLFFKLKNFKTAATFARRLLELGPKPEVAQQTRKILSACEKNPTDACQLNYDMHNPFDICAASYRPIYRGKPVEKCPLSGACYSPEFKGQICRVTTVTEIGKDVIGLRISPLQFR

[2] = target: B3; assay: cryo-EM structure; COPI coated vesicles with GTPγS incubated 15–20 min with a 10 molar excess of ArfGAP2; subtomogram averaging, difference map and classification; class with ArfGAP2 at 10.1 Å
[3] = target: B1; assay: cryo-EM structure; cryo-electron tomography and subtomogram averaging of the COPI leaf, 9.2 Å; coat assembled in vitro from coatomer (840 nM), Arf1 (2 μM), GTPγS, ARNO and GUVs, 37°C, 50 mM HEPES pH 7.4, 50 mM KOAc, 1 mM MgCl2
[4] = target: B1; assay: cryo-EM structure; COPI coated vesicles with GTPγS incubated 15–20 min with a 10 molar excess of ArfGAP2; subtomogram averaging, difference map and classification; class with ArfGAP2 at 10.1 Å
[5] = target: B4; assay: as above

Row | Binder | binding result [1] | binding result [2] | binding result [3] | binding result [4] | binding result [5]
1 | B1 | binds |  |  |  | 
2 | B2 |  | binds | binds |  | 
3 | B3 |  |  |  | binds | binds
4 | B4 | binds |  | binds |  | 
